Experimental data as given in patent US20260224723A1, “ANTI-B7H3 ANTIBODY-DRUG CONJUGATE AND USE THEREOF” (Duality Biologics (Suzhou) Co., Ltd., priority 2022, published 2026).

How the values were obtained:
[1] = molecular target: Human full-length B7H3 on MCF-7 cells (human) (UniProt Q5ZPR3); assay: FACS on MCF-7 cells, Alexa 647 anti-human secondary
[2] = molecular target: Human full-length B7H3 on MCF-7 cells (human) (UniProt Q5ZPR3); assay: cell-based or functional assay
[3] = molecular target: Cynomolgus monkey full-length B7H3 on transfected FlpinCHO cells (cynomolgus monkey); assay: FACS on cynomolgus monkey B7H3-transfected FlpinCHO cell pool; negative control

| EC50 [1] [nM] | Maximum MFI [1] [MFI] | Antibody internalization EC50 [2] [nM] | Antibody internalization Maximum MFI [2] [MFI] | Maximum MFI [3] [MFI] | Substance |
| --- | --- | --- | --- | --- | --- |
| 2.49 | 4640 | 1.95 | 39800 |  | Enoblituzumab (MacroGenics) (antibody) |
|  |  |  | 21 | 6.67 | hIgG1 isotype (antibody) |
